The results in this text go back to article PMC10316083, “Thermotoga maritima oriC involves a DNA unwinding element with distinct modules and a DnaA-oligomerizing region with a novel directional binding mode” (The Journal of Biological Chemistry, 2023).

This series concerns the molecule itself. The series can be described thus: native gel or EMSA; ATP-bound tmaDnaA on a 30 bp DNA (300 nM) with the oppositely oriented tmaDnaA boxes 2 and 3; complexes with one (C1) or two (C2) tmaDnaA molecules; 8% polyacrylamide gel, GelStar staining; self-interaction read from the preference for C2 on DNA. On the technique in general: In EMSA bound probe runs differently from free probe, usually more slowly.

B1: Thermotoga maritima DnaA initiator (tmaDnaA), wildtype (natural protein, UniProt P46798 1-440, looked up)
chain: MKERILQEIKTRVNRKSWELWFSSFDVKSIEGNKVVFSVGNLFIKEWLEKKYYSVLSKAVKVVLGNDATFEITYEAFEPHSSYSEPLVKKRAVLLTPLNPDYTFENFVVGPGNSFAYHAALEVAKHPGRYNPLFIYGGVGLGKTHLLQSIGNYVVQNEPDLRVMYITSEKFLNDLVDSMKEGKLNEFREKYRKKVDILLIDDVQFLIGKTGVQTELFHTFNELHDSGKQIVICSDREPQKLSEFQDRLVSRFQMGLVAKLEPPDEETRKSIARKMLEIEHGELPEEVLNFVAENVDDNLRRLRGAIIKLLVYKETTGKEVDLKEAILLLKDFIKPNRVKAMDPIDELIEIVAKVTGVPREEILSNSRNVKALTARRIGMYVAKNYLKSSLRTIAEKFNRSHPVVVDSVKKVKDSLLKGNKQLKALIDEVIGEISRRALSG
notes: DnaA chromosomal replication initiator protein of Thermotoga maritima (tmaDnaA); also called WT tmaDnaA; ATP-tmaDnaA; source: purified as described previously (40); plasmid pTHMA-1
Regarding B1, the binding result is “binds”.
